Experimental data taken from patent US20250333486A1, “Anti-HSP90 alpha antibody and uses thereof” (NATIONAL HEALTH RESEARCH INSTITUTES, priority 2021, published 2025).

Key:
HSP90α = biological target: T1, HSP90α (Homo sapiens, UniProt P07900); experiment: Epitope determination by ELISA (domain, peptide and alanine scanning); assay type: binding; details: full-length and truncated HSP90α
T1 construct: The full-length HSP90α (a.a. 1-732) and its 3 truncated fragments; 8×His; made in house; host or cells: Escherichia coli ClearColi, pET-23a
Description: The full-length HSP90α (a.a. 1-732) and its 3 truncated fragments including the N-terminal plus Linker domains (a.a. 1-272), N terminus through Middle domain (a.a. 1-629), and C-terminal domain (a.a. 630-732) were cloned, expressed, and purified. Briefly, each cDNA sequence with a 8×His-tag was amplified by PCR from the human ORF Clone (NM_005348) with the primers containing Xho I and BamH I sites. The PCR products were purified, digested with restriction enzymes, and then inserted into pET-23a plasmid (Sigma-Aldrich). The recombinant plasmids were then transformed into Escherichia coli ClearColi® competent cells (Lucigen Co., Middleton, WI, USA), and expressions of the recombinant constructs were stimulated by the addition of isopropyl-D-thiogalacto-pyranoside. The expressed histidine-tagged full-length and truncated HSP90α were further purified by using the Ni—NTA column (Qiagen, Germantown, MD, USA) according to the manufacturer's instructions. The purified proteins were finally dialyzed against the storage buffer consisting of 25 mM Tris-HCl (pH, 7.0), 50 mM NaCl, 0.1% Triton X-100, 50% glycerol, 1 mM EDTA, and 1 mM DTT, and protein concentrations were determined by the Bradford protein assay (Bio-Rad Laboratories, Hercules, USA).
At first, the domain scanning strategy was used to roughly delineate the HSP90α region responsible for the binding with our prepared antibodies. […]

[1] = biological target: T2, associations of CD91 with HSP90α and IKKα (Homo sapiens, UniProt P07900); experiment: Proximity ligation assay (PLA) in PANC-1 cells; assay type: cell-based; details: 15 μg/ml rHSP90α, 10 μg/ml antibody
T2 construct: recombinant 732-amino acid (a.a.) full-length human HSP90α (rHSP90α; PeproTech Co., Cranbury, NJ, USA); purchased PeproTech Co., Cranbury, NJ, USA; host or cells: PANC-1 cells (CD91 and IKKα endogenous)
Procedure: PANC-1 cells seeded onto glass coverslips at a density of 2×10^5 cells per 22×22-mm coverslip were incubated 16 h with 0.5% serum-containing medium at 37° C. plus a 5% CO2 humidified atmosphere. The cells were then added with PBS or 15 μg/ml of rHSP90α in the absence or presence of 10 μg/ml of control IgG or the tested anti-HSP90α antibody for another 24-h incubation. The treated cells were then fixed with 3% paraformaldehyde and blocked with the blocking solution provided in the Duolink in situ PLA kit (Olink Bioscience, Uppsala, Sweden). Furthermore, the cell samples were incubated overnight at 4° C. with anti-CD91 antibody (1:80, cat. #550495, BD Biosciences, San Jose, CA, USA) mixed with anti-HSP90α antibody (1:80, cat. #AHP-1339, AbD Serotec, Raleigh, NC, USA) or anti-IKKα antibody (1:80, cat. #3285, Epitomics Co., Burlingame, CA, USA). After washed trice with Tris-buffered saline plus 0.05% Tween 20, the cell samples were incubated with PLA probes for the subsequent ligation and amplification procedure according to the manufacturer's instructions for the Duolink in situ PLA kit. Finally, nuclei were counterstained with 4′,6′-diamidino-2-phenylindole (DAPI; Sigma-Aldrich). Images were photographed and analyzed using Leica TCS SP5 II confocal microscope and LAS AF Lite 4.0 software (Leica, Wetzlar, Germany).

SW620 and PANC-1 cells = experiment: Transwell invasion assay, rHSP90α-induced cancer cell invasion; assay type: cell-based, human; details: SW620 and PANC-1, 15 μg/ml rHSP90α plus 10 μg/ml antibody
Procedure: (§1) In a 37° C. and 5% CO2 humidified incubator, cancer cells were subjected to serum starvation in 0.5% FBS-containing medium for 16 h, and then added with PBS or 15 μg/ml of rHSP90α in the absence or presence of 10 μg/ml of control IgG or the tested anti-HSP90α antibody. After another 24 h, the treated cells were harvested as aliquots (1×10^5 cells per aliquot) in 0.5% FBS-containing culture medium, and then each aliquot was seeded into a top chamber of Transwell inserts pre-coated with 5-fold diluted Matrigel (BD Biosciences). Cells were allowed 16 h to invade through the Matrigel toward the bottom chambers containing culture medium plus 10% FBS. The filters of the Transwell inserts were then fixed and stained with Giemsa. Invasive cells on the lower side of filters were photographed using the Axiovert S100/AxioCam HR microscope system (Carl Zeiss, Oberkochen, Germany) and further quantified by the Image-Pro Plus software (Media Cybernetics, Inc., Silver Spring, MD, USA).

rHSP90α = biological target: T3, rHSP90α (Homo sapiens, UniProt P07900); experiment: ELISA for HSP90α-binding activities; details: culture supernatants of six hybridoma clones
T3 construct: recombinant 732-amino acid (a.a.) full-length human HSP90α (rHSP90α; PeproTech Co., Cranbury, NJ, USA); purchased PeproTech Co., Cranbury, NJ, USA
Procedure: For assaying the HSP90α-binding activities of the prepared antibodies, 96-well plates were coated with 12.5 ng/ml of rHSP90α in the capture buffer (BioLegend, San Diego, CA, USA) by overnight incubation at 4° C. The coated plates were washed twice with PBST and then blocked with PBST plus 3% bovine serum albumin (BSA). The prepared antibodies were applied and incubated 2 h at room temperature. After three washes with PBST, horseradish peroxidase-conjugated secondary antibody was added and incubated at 37° C. for another 1 h. After three washes, 0.3 mg/ml of 3,3′,5,5′-tetramethylbenzidine in 0.015% H2O2 was added into each well and incubated in the dark at room temperature for 10 min. The reactions were stopped by the addition of 0.5 M H2SO4, and OD450 values were measured by an Infinite M200 microplate reader (TECAN, Männedorf, Switzerland). Additionally, the immunoglobulin (IgG) isotype characterization of anti-HSP90α antibodies was performed by using the Mouse Ig Isotyping ELISA Ready-Set-Go!™ Kit (eBioscience™, Thermo Fisher Scientific, Waltham, MA, USA). The ELISA protocol was also used to assay the secreted HSP90α levels of mouse serum samples as described previously. See Chen J S, Hsu Y M, Chen C C, Chen L L, Lee C C, Huang T S. Secreted heat shock protein 90α induces colorectal cancer cell invasion through CD91/LRP-1 and NF-κB-mediated integrin αV expression. […]

[2] = tested on: SW620, PANC-1, and Panc 02 cells; experiment: Cell spheroid-forming assay, rHSP90α-induced gain-of-stemness; assay type: cell-based, human and mouse; details: SW620, PANC-1, Panc 02; 15 μg/ml rHSP90α plus 10 μg/ml antibody
Procedure: One thousand cancer cells were seeded onto each well of 24-well plates pre-coated with a 4-mm thick layer of 0.5% agarose. After incubation 24 h with serum-free medium at 37° C. plus a 5% CO2 humidified atmosphere, cells were added with PBS or 15 μg/ml of rHSP90α in the absence or presence of 10 μg/ml of control IgG or the tested anti-HSP90α antibody. The incubation was kept for 10-14 days with supplements of some fresh serum-free medium every 3 days. Finally, the cell spheroids characterized by tight, non-adherent, and >100 μm in diameter were photographed and counted under an Olympus IX 71 inverted microscope (Center Valley, PA, USA). The spheroid formation % was calculated by the formula: (number of cell spheroids/1000)×100%.

PANC-1 cells = experiment: Transwell invasion assay, rHSP90α-induced PANC-1 invasion; assay type: cell-based, human; details: 15 μg/ml rHSP90α plus 10 μg/ml antibody
Procedure: as §1, with “with PBS or 15 μg/ml of rHSP90α in the absence or presence of 10 μg/ml of control IgG or the tested anti-HSP90α antibody.” left out

Molecule | HSP90α region bound (domain scanning) (HSP90α) | blocking of the binding of eHSP90α with its cell-surface receptor CD91 [1] | blocking of the downstream association of CD91 with IKKα [1] | rHSP90α-induced cancer cell invasion (SW620 and PANC-1 cells) | HSP90α-binding levels (ELISA) (rHSP90α) | rHSP90α-induced spheroid-forming ability (gain-of-stemness) [2] | suppression of rHSP90α-induced invasiveness of PANC-1 cells (PANC-1 cells)
Clone-2: mouse anti-HSP90α monoclonal antibody, IgG2b κ; VH SEQ ID NO: 2, VL SEQ ID NO: 7 (antibody, V domains shown, Heavy chain variable region; Light chain variable region) VH: EVQVVESGGGLVQPKGSLKLSCAASGFTFKTYAMNWVRQAPGKGLEWVARIRSKSRNYATYYADSVKDRFTISRDDSQFMFYLQMNNLKTEDTAMYYCVVGGSGFDYWGQGTTLTVSS VL: DVLMTQTPLSLPVSLGDQASISCRSSQSIVHSNGNTYLEWYLQKPGQSPKLLIYKVGVPDRFSGSGSGTDFTLSISRVEAGDLGVYYCFQGSHVPWTFGGGTKLEIK | bound to the a.a. 1-272 region as well as the full-length protein | efficiently blocked | efficiently blocked | drastically abolished | top two HSP90α-binding levels | significantly inhibited | 
Clone-2-chimera: recombinant IgG1 antibody: Clone-2 VH and VL with human IgG constant domains (antibody, V domains shown) VH: EVQVVESGGGLVQPKGSLKLSCAASGFTFKTYAMNWVRQAPGKGLEWVARIRSKSRNYATYYADSVKDRFTISRDDSQFMFYLQMNNLKTEDTAMYYCVVGGSGFDYWGQGTTLTVSS VL: DVLMTQTPLSLPVSLGDQASISCRSSQSIVHSNGNTYLEWYLQKPGQSPKLLIYKVSNRFSGVPDRFSGSGSGTDFTLSISRVEAGDLGVYYCFQGSHVPWTFGGGTKLEIK |  |  |  |  |  |  | superior to Clone-2-hB, Clone-2-hC, and their parental Clone-2
